For this series, the system named is T1, C=C(OP(=O)(O)O)C(=O)O.
T1 construct: full-length liver isozyme; homotetramer; purified or partially purified
The series can be described thus: enzyme kinetics, PEP concentration at half Vmax. The settings on record: no allosteric effector; apparent affinity (not an association constant). It is filed as biochemical, Homo sapiens. The source says:
enzyme kinetics, PEP concentration at half Vmax on hLPYK | Ka-PEP (the kinetic equivalent to Kia-PEP), the apparent affinity for PEP

Sequence of hLPYK (Homo sapiens) (chain, as listed by the source): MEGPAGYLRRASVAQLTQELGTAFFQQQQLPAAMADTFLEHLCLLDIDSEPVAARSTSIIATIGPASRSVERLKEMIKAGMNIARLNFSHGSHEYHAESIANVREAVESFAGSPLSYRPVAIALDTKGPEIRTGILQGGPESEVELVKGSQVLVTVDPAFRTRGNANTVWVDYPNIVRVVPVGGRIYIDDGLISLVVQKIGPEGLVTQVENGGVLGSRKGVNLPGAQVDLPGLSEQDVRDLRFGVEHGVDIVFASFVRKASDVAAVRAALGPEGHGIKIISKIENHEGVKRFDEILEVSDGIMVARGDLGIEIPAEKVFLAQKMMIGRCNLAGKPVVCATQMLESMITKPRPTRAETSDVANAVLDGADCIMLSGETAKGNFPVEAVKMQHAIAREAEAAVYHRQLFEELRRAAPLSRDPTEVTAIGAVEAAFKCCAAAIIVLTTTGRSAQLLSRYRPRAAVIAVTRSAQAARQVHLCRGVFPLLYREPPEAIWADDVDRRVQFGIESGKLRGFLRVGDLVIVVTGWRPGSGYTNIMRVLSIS

As to hLPYK (Homo sapiens), the K0.5 is recorded as 0.22 mM.

The values above are taken from article PMC10176505, “PYK-SubstitutionOME: an integrated database containing allosteric coupling, ligand affinity and mutational, structural, pathological, bioinformatic and computational information about pyruvate kinase isozymes” (Database: The Journal of Biological Databases and Curation, 2023).
